Results as given in PMC10501992, “How Pol α-primase is targeted to replisomes to prime eukaryotic DNA replication” (Molecular Cell, 2023).
One block for each binder: values may come before it.

Experiments:
Conditions in all cases: both partners purified
[1] = molecular target: T1, budding yeast CMG (Cdc45-Mcm2-7-GINS) replicative helicase (S. cerevisiae, UniProt Q08032 1-650; P29469 1-868; P24279 1-971; P30665 1-933; P29496 1-775; P53091 …); assay: cryo-EM structure; budding yeast replisome: 150 nM CMG on fork DNA (39 nt 3′ flap, 60 nt 5′ flap) with 1.5-fold molar excess of Tof1-Csm3, Mrc1 and Pol α-primase; 25 mM HEPES-NaOH pH 7.6, 150 mM NaOAc, 0.5 mM TCEP, 500 μM AMP-PNP, 10 mM Mg(OAc)2, on ice; 10-30% glycerol gradient with glutaraldehyde and BS3 cross-linkers
T1 construct: Cdc45, S. cerevisiae; Mcm2, S. cerevisiae; Mcm3, S. cerevisiae; Mcm4, S. cerevisiae (named only within Mcm2-7); Mcm5, S. cerevisiae; Mcm6, S. cerevisiae (named only within Mcm2-7); Mcm7, S. cerevisiae (named only within Mcm2-7); Psf1, subunit of GINS, S. cerevisiae; Psf2, subunit of GINS, S. cerevisiae; Sld5, subunit of GINS, S. cerevisiae; source: S. cerevisiae strain yJY197, expressed and …

Mrc1 (budding yeast) = molecular target: T2, Mrc1 (budding yeast) (S. cerevisiae, UniProt P25588 1-1096); assay: as above
T2 construct: Mrc1, S. cerevisiae; several small sections modelled (S339-K323 as printed, D468-Q483, N842-E858); source: S. cerevisiae strain yJY32, expressed and purified as described previously
T2 sequence: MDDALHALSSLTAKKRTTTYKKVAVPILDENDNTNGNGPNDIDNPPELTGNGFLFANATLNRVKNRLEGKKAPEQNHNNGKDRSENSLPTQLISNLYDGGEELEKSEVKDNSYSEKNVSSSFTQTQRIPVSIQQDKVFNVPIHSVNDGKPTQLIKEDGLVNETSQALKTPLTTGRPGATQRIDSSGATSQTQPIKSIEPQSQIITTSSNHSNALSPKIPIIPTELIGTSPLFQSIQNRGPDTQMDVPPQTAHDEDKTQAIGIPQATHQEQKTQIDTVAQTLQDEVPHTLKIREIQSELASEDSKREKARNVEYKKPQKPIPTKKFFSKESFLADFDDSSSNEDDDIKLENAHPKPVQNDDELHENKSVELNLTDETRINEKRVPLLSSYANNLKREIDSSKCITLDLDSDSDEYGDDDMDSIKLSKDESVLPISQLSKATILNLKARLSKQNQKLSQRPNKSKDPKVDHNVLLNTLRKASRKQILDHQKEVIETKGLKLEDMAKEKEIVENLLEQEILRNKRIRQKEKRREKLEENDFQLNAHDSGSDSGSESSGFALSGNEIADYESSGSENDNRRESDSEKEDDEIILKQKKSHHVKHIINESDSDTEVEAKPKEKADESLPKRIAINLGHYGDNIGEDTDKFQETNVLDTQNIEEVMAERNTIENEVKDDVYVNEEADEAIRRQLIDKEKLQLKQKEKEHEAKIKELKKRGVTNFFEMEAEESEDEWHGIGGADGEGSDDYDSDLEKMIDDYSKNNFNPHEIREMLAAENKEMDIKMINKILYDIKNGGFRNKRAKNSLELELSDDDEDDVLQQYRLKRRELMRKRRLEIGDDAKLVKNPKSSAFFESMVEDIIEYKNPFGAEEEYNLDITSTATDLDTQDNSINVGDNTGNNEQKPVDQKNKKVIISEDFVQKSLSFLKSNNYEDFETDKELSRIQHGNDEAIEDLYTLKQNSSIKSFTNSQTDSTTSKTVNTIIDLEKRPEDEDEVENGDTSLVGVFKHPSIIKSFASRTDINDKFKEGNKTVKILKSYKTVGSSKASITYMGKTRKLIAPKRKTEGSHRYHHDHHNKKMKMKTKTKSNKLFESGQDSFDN

[2] = molecular target: T3, PRIM2 (human primase accessory subunit) (human, UniProt P49643 1-509); assay: cryo-EM structure; human replisome: 150 nM CMG on fork DNA (60 nt or 15 nt 5′ flap) with 1.5-fold molar excess of AND-1, TIMELESS-TIPIN, CLASPIN and Pol α-primase; 25 mM HEPES-NaOH pH 7.6, 150 mM NaOAc, 0.5 mM TCEP, 500 μM AMP-PNP, 10 mM Mg(OAc)2, on ice; 10-30% glycerol gradient with glutaraldehyde and BS3 cross-linkers
T3 construct: PRIM2, human; modelled residues 1-5 (N terminus) and 17-252 (NTD); stood in the assay as a subunit of m18; also called PRIM2NTD; PRIM2_(Nterm)
T3 sequence: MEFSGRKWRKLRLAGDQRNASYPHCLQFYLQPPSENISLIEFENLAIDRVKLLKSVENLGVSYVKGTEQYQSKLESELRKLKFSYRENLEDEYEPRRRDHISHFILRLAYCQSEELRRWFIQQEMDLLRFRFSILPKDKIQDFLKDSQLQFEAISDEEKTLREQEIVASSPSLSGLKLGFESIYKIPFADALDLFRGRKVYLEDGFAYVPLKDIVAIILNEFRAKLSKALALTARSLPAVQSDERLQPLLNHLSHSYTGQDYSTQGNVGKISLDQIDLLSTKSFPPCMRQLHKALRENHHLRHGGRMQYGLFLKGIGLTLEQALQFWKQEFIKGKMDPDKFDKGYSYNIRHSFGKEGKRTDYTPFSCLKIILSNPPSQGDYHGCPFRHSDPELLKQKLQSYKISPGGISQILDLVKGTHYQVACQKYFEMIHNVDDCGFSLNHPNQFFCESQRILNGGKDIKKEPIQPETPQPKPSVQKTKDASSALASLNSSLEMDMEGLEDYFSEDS

binding result [1]: binds
B1: Tof1-Csm3 (budding yeast) (complex, S. cerevisiae)
chain 1: MSADLQQGTTNAADFSLTVLRARIALLATAIGGPDYTSQIDPPPYKLGDDCLACLKDLKRWFKLVDDQQKRWDVAMAVAEYRILTDDLLPILIDWENKCSLAAKLAKNNPDHEEFRNKAYYDKIALNCLQLLVLMTWPLIVTEQSSSNQITLYGELKKHQLVYKKTILSMESGKVLRAAIRLALDVIKIDRLSRTPRDNMVLKLVLNFFRNVIAIEPGEFTINTKKSMPKKGITSIDTLPPNVSMDDISLNTVISSFHKNKVFGFLLTLTSSLSKEFDQDFINIPLLEIMFYFTKDVNQELLFPRQFETGTHSKVVNKNESSSANNIVTSAGFELSKLLQKEHQMRKNVIKHTSARHSRFGGLLSIQTPDKTRLTVSGSQALVDEKIALQKLDDSKKWNKRIIKKHQSVAAEGLPNSLLNSQTGKAIFFTESNGKHFKEFINNFIDSGFNILLHSVTNYFTTEQDRMVTLEQVEYLLFFAWFVKYQLLRSKIDNSADIKQVSEALKEVTFILVSSLLRSAYDLKNWTVTHAGMIAFNELLNLVSRTKAAQEEDSTDIEFIVSRLFSDERIQLLSNLPKIGSKYSLQFMKSCIELTHSVLKVLEQYSDDKTLVIEGKSRRQKKFNISEGDITKLIEEENVDRDEALDILTSSLRSIEVNFQKVQANYMTEPVIETYINFLERFRELEDDSIKKVFSFFHRVFVQAKEQALLFRFDLIILLREMLSPDGLDRMSRSRKYVSQFSDYFLARLKKRLKKSPAWFVGLLFPPLHNSEVGFYQRYGEYNVLNNESMYAAPASQFKPIPDEEALPPSILLDMKYGVLVSTLLDDGKTELLDQLLKHITHTLDIFKSWLTVNVNAGKETVNPPNEYFTLTGVLNNDPIFKDKDYRALLLLIGYSIPRKINEPCFLPGTVEVSDLTVSCELVKKYLSTPFETPNGLPSSSYLLRVRSEKDSFSHNEQDGWEGDDDYDYNDPYIVPDDQILSKSDAAYFKDLDNNASDKLKGTKFSKGIARSKKKDKRKRRKGEAKTNLPMFGDQDDERPQTVRERHGVFSKEFISDSEDDEDLMNPIFFENETYMRWLLDKNNGQLTEDRYIQFAKFAAERMNNGGVVTGDYTSLFGGSIPSIESIRATESSSFAPDKSLISLASHVASEMSIFDVNNNNNNQLSDDDVNSESRNSLGSSQPSNSQNMFQSEVYSRKESTKRSLEASAADESDEDEEAIRLFGKKSRVVLSQGDSDD
chain 2: MDQDFDSLLLGFNDSDSVQKDPTVPNGLDGSVVDPTIADPTAITARKRRPQVKLTAEKLLSDKGLPYVLKNAHKRIRISSKKNSYDNLSNIIQFYQLWAHELFPKAKFKDFMKICQTVGKTDPVLREYRVSLFRDEMGMSFDVGTRETGQDLERQSPMVEEHVTSAEERPIVADSFAQDKRNVNNVDYDNDEDDDIYHLSYRNRRGRVLDERGNNETVLNNVVPPKEDLDALLKTFRVQGPVGLEENEKKLLLGWLDAHRKMEKGSMTEEDVQLIQSLEEWEMNDIEGQHTHYDLLPGGDEFGVDQDELDAMKEMGF
notes: Tof1, S. cerevisiae; Csm3, S. cerevisiae; source: S. cerevisiae strain yAE48, expressed and purified as described previously

binding result (Mrc1 (budding yeast)): binds
B2: Cdc45 (budding yeast) (natural protein, S. cerevisiae, UniProt Q08032 1-650, looked up)
chain: MYYGISQFSEAYNKILRNSSSHSSCQLVIFVSCLNIDALCATKMLSLLFKKQLVQSQIVPIFGYSELRRHYSQLDDNINSLLLVGFGGVIDLEAFLEIDPQEYVIDTDEKSGEQSFRRDIYVLDAHRPWNLDNIFGSQIIQCFDDGTVDDTLGEQKEAYYKLLELDEESGDDELSGDENDNNGGDDEATDADEVTDEDEEDEDETISNKRGNSSIGPNDLSKRKQRKKQIHEYEGVLEEYYSQGTTVVNSISAQIYSLLSAIGETNLSNLWLNILGTTSLDIAYAQVYNRLYPLLQDEVKRLTPSSRNSVKTPDTLTLNIQPDYYLFLLRHSSLYDSFYYSNYVNAKLSLWNENGKKRLHKMFARMGIPLSTAQETWLYMDHSIKRELGIIFDKNLDRYGLQDIIRDGFVRTLGYRGSISASEFVEALTALLEVGNSTDKDSVKINNDNNDDTDGEEEEDNSAQKLTNLRKRWVSNFWLSWDALDDRKVELLNRGIQLAQDLQRAIFNTGVAILEKKLIKHLRIYRLCVLQDGPDLDLYRNPLTLLRLGNWLIECCAESEDKQLLPMVLASIDENTDTYLVAGLTPRYPRGLDTIHTKKPILNNFSMAFQQITAETDAKVRIDNFESSIIEIRREDLSPFLEKLTLSGLL
notes: Cdc45, S. cerevisiae; stood in the assay as a subunit of m2; source: subunit of CMG from S. cerevisiae strain yJY197, purified as described previously

binding result (Mrc1 (budding yeast)): binds
B3: Mcm2 (budding yeast) (natural protein, S. cerevisiae)
chain: MSDNRRRRREEDDSDSENELPPSSPQQHFRGGMNPVSSPIGSPDMINPEGDDNEVDDVPDIDEVEEQMNEVDLMDDNMYEDYAADHNRDRYDPDQVDDREQQELSLSERRRIDAQLNERDRLLRNVAYIDDEDEEQEGAAQLDEMGLPVQRRRRRRQYEDLENSDDDLLSDMDIDPLREELTLESLSNVKANSYSEWITQPNVSRTIARELKSFLLEYTDETGRSVYGARIRTLGEMNSESLEVNYRHLAESKAILALFLAKCPEEMLKIFDLVAMEATELHYPDYARIHSEIHVRISDFPTIYSLRELRESNLSSLVRVTGVVTRRTGVFPQLKYVKFNCLKCGSILGPFFQDSNEEIRISFCTNCKSKGPFRVNGEKTVYRNYQRVTLQEAPGTVPPGRLPRHREVILLADLVDVSKPGEEVEVTGIYKNNYDGNLNAKNGFPVFATIIEANSIKRREGNTANEGEEGLDVFSWTEEEEREFRKISRDRGIIDKIISSMAPSIYGHRDIKTAVACSLFGGVPKNVNGKHSIRGDINVLLLGDPGTAKSQILKYVEKTAHRAVFATGQGASAVGLTASVRKDPITKEWTLEGGALVLADKGVCLIDEFDKMNDQDRTSIHEAMEQQSISISKAGIVTTLQARCSIIAAANPNGGRYNSTLPLAQNVSLTEPILSRFDILCVVRDLVDEEADERLATFVVDSHVRSHPENDEDREGEELKNNGESAIEQGEDEINEQLNARQRRLQRQRKKEEEISPIPQELLMKYIHYARTKIYPKLHQMDMDKVSRVYADLRRESISTGSFPITVRHLESILRIAESFAKMRLSEFVSSYDLDRAIKVVVDSFVDAQKVSVRRQLRRSFAIYTLGH
notes: Mcm2, S. cerevisiae; stood in the assay as a subunit of m2; source: subunit of CMG from S. cerevisiae strain yJY197, purified as described previously

binding result [2]: binds
B4: PSF2 (human GINS subunit) (natural protein)
chain: MDAAEVEFLAEKELVTIIPNFSLDKIYLIGGDLGPFNPGLPVEVPLWLAINLKQRQKCRLLPPEWMDVEKLEKMRDHERKEETFTPMPSPYYMELTKLLLNHASDNIPKADEIRTLVKDMWDTRIAKLRVSADSFVRQQEAHAKLDNLTLMEINTSGTFLTQALNHMYKLRTNLQPLESTQSQDF
notes: PSF2, subunit of GINS, human; stood in the assay as a subunit of m19
